The nature of this series: label from the status in PepcDB records.
Regarding “EFTTMLGPAVLGLSLWALLHPGTGAPLCLSQQLRMKGDYVLGGLFPLGEAEEAGLRSRTRPSSPVCTRFSSNGLLWALAMKMAVEEINNKSDLLPGLRLGYDLFDTCSEPVVAMKPSLMFLAKAGSRDIAAYCNYTQYQPRVLAVIGPHSSELAMVTGKFFSFFLMPQVSYGASMELLSARETFPSFFRTVPSDRVQLTAAAELLQEFGWNWVAALGSDDEYGRQGLSIFSALAAARGICIAHEGLVPLPRADDSRLGKVQDVLHQVNQSSVQVVLLFASVHAAHALFNYSISSRLSPKVWVASEAWLTSDLVMGLPGMAQMGTVLGFLQRGAQLHEFPQYVKTHLALATDPAFCSALGEREQGLEEDVVGQRCPQCDCITLQNVSAGLNHHQTFSVYAAVYSVAQALHNTLQCNASGCPAQDPVKPWQLLENMYNLTFHVGGLPLRFDSSGNVDMEYDLKLWVWQGSVPRLHDVGRFNGSLRTERLKIRWHTSDNQKPVSRCSRQCQEGQVRRVKGFHSCCYDCVDCEAGSYRQNPDDIACTFCGQDEWSPERSTRCFRRRSRFLAWGEPAVLLLLLLLSLALGLVLAALGLFVHHRDSPLVQASGGPLACFGLVCLGLVCLSVLLFPGQPSPARCLAQQPLSHLPLTGCLSTLFLQAAEIFVESELPLSWADRLSGCLRGPWAWLVVLLAMLVEVALCTWYLVAFPPEVVTDWHMLPTEALVHCRTRSWVSFGLAHATNATLAFLCFLGTFLVRSQPGRYNRARGLTFAMLAYFITWVSFVPLLANVQVVLRPAVQMGALLLCVLGILAAFHLPRCYLLMRQPGLNTPEFFLGGGPGDAQGQNDGNTGNQGKHE”, the protein production result is recorded as “failed”.

With “EIESRELADIPVLHAYPVGQKDTPLPCVIFYHGFTSSSLVYSYFAVALAQAGLRVIMPDAPDHGSRFSGDAARRLNQFWQILLQSMQEFTTLRAAIAEENWLRDDRLAVGGASMGAMTALGITARHPTIKCTASMMGSGYFTSLARSLFPPLIPETAAQQNEFNNIVAPLAEWEATNHLEQLGDRPLLLWHGLDDDVVPADESLRLQQALSETGRDKLLTCSWQPGVRHRITPEALDAAVTFFLQHL”, the protein production entry is listed as “failed”.

Take “EKAVLIGEKEADITFVTWGSQKGPILDVIEDLKEEGISANLLYLKMFSPFPTEFVKNVLSSANLVIDVESNYTAQAAQMIKLYTGIDIKNKILKYNGRHMTEDEILKSAKEILNKESLMVVLEDGS”: the protein production entry is reported as “failed”.

For the sequence “EKEDSKTRGEKIKSDFFELLSNHHLDSQSRWSKVKDKVESDPRYKAVDSSSMREDLFKQYIEKIAKNLDS”, the protein production result is “not failed”.

Take “EKGDWAQFGRYAEANKTVKVPSNVVFMGNSITDGWWPADSTFFIRNNFVDRGISGQTTSEMLVRFRQDVINLKPKAVVILAGINDIAHNNGVIALENVFGNLVSMAELAKANHIKVIFCSVLPAYDFPWRPGMQPADKVIQLNKWIKEYADKNGLTYVDYHSAMKDERNGLPANLSKDGVHPTLEGYKIMEKIVLEAIHKTVK”: the protein production entry was “not failed”.

“EKGLEIAQERKARDEGWGDSIATMEMILKNAQGESSTRLMRLKSLEVEGDGDKGLTIFDQPRDVTGTAFLNHSHTIGADDQWLYLPALKRVKRISSRNKSGPFMGSEFAYEDLSSFEIEKYRFNHLKDEKFNGQDVFVLEQIPTDKNSGYTKQVVWLDKAHYRPLKVEFYDRKGALLKTLTFANYKQYLDKYWRAHTMAMTNHQTGKSTELNTSDLRFQTGLEENDFNKNVLKR”: the protein production result is “not failed”.

“ELALWSPEVKIVELVKDCKGLGFSILDYQDPLDPTRSVIVIRSLVADGVAERSGGLLPGDRLVSVNEYCLDNTSLAEAVEILKAVPPGLVHLGIC”: the protein production result was “not failed”.

As to “EMEEREIINNVFEFGDMQAKNAMVQRIDMVAIDMEDSYDEIIQVFKTEKLSRMPVYEETIDDIVGILNIKDIIFLSDEEIESFDIKNYMREPFFTYEFKKITQLLEEMKLEKSQMAIVVDEYGGTSGLLTIEDLVEVIVGDIE”, the protein production result was “not failed”.

As to “EQAEAQLAELDLLASMFPGENELIVNDQLAVAELKDCIEKKTMEGRSSKVYFTINMNLDVSDEKMAMFSLACILPFKYPAVLPEITVRSVLLSRSQQTQLNTDLTAFLQKHCHGDVCILNATEWVREHASGYVSRDTSS”, the protein production result is “not failed”.

For “EQLPVLQTVPFAGSAEPVSLTRESVERSVGEANMQEQRKRVHAMLRDYELQLRINSDASQQDAHLTPDSE”, the protein production result is given as “not failed”.

Take “EQLTLRHGTRADISEIAPLLARNAADPCELVDLEHALDLLTHESSHFLAVVRNARGKIIAAMQLTIVPEFSRGGALHLHIEGPFIIPEYRTTDLDKKLRAWAVEHGRARGVKVEEVVG”: the protein production result is on record as “failed”.

In the case of “EQVFAAECILSKRLRKGKLEYLVKWRGWSSKHNSWEPEENILDPRLLLAFQKKEHEKEVQN”, the protein production entry is “not failed”.

For “ESELACVIALQDITLRVQETERLEKMLEHLPVCMVIMNQNDEVEQINQTGIELLGFERDEIVGNPVDLFIPQEQVESHKALLKKFFQEETVIDTRSLERDFKVKHKSGKLIEIQAVYTPVHFHN”, the protein production result is “failed”.

Consider “EVQKPLHEQLWYHGAIPRAEVAELLVHSGDFLVRESQGKQEYVLSVLWDGLPRHFIIQSLDNLYRLEGEGFPSIPLLIDHLLSTQQPLTKKSGVVLHRAVP”, for which the protein production entry is “not failed”.

Take “EVVVTALGIKREKKMLGYAVQELKSDELNKTGDPSVTSALQGKVAGLQMNTSATGLGGSTKITIRGNSSLTDNNQPLWIVDGVPFSDTSTSSASRYDGVDRGSASMDINPDDIESISVLKGPNAAALYGSRAGNGVILITTKKGSK”: the protein production entry is listed as “failed”.

On to “FATTDDVILLWRQLSVDEIKRAEALLETVSDTLRLEASKVGKNLDEMILETPYFATVLKSVTVDIVARTLMTATQGEPMSQESQSALGYTWSGTYLVPGGGLFIKDSELKRLGLKKQRYGGI”, for which the protein production entry is reported as “failed”.

On to “FEELLNALHDGVYITDGQGQTLKVNQAYERLTGLNGAELLGRPMQELVKSGVISQSASLRVLQDGRPVSVMQSLSHGKKLLVSATPILAADQSIRYVVSTVRDMTELLRIKRERDELQQL”, for which the protein production entry is “failed”.

In the case of “FFSNAEVAERLAYPQLIEALRIGLAKPCSAPLRNCHALPAQASLLQMPVWQAGAGIGVKLVTVFPGNGARGLPAVAAVFALFDGEDGRPLALLEASELTARRTACSSALAADYLARDDARRLLVVGCGTLAAHMVRAHACVRDYRHIDIWGRDPAKAAALAARLREEGYPARAADGLRAAVEAADCVSCVTTSREALVRGAWLKPGVHLDLVGAFLPSMRETDVLAVARARVVVDTRAGALEEAGDLLQAIAEGAIGREAISTELRDLLSGAGRRGDPGEITLFKSVGYALEDLVAARRVV”, the protein production entry is on record as “failed”.

Regarding “FKAVTYVADPVDVTYQSLNVSVPVEIDGKAVDASHAPIVFSNAVGGYMPSSTAGNTGIGQGVNAKLSLASGFVVVDPGARGRTLVDTAGVYYGVAPAAIVDLKAAIRYLRHNKGRVPGDTDRIVATGVSAGGALTSLLGASGDSDRYAPYLQELGAADASDAVFAAAPYCPITDLEHADMAYEWNWGTNPLPTGAQVDQTLSKELRSGFAEYQASLNLRGKNGFGRITARNYDAYMVKTHLEPSATRYLGALPDADRAAYLTANPWITWSGGRASFGWGDFLTHVGARKKNVPSFDTFTLAAPENNLFGVATTKARHFTQWSLRKATGDDGARLDADLPEKIDLMNPMYFIEHQNPGRSRHWFIRVGTKDSDTSLTVVGNLTAGLENLGDDVDTYMYWDGGHGANQDAPDFITWIRSVSG”, the protein production entry was “failed”.

Take “FLSTRDNVDELRKIENKSSFVSADNMPEYVKGAFISMEDERFYNHHGFDLKGTTRALFSTISDRDVQGGSTITQQVVKNYFYDNDRSFTRKVKELFVAHRVEKQYNKNEILSFYLNNIYFGDNQYTLEGAANHYFGTTVNKNSTTMSHITVLQSAILASKVNAPSVYNINN”: the protein production result is on record as “failed”.

In the case of “FYTPKAVVQLVVELIDPRPGHSVYDPTCGSGGMLVESAHHVSGLPDGTLMGKPNVLLYGQEKNLGTWAIAKLNLYLHNMHASIERGDTLVEPKHLDGDYLKTFDRVIANPPFSAKSWWTPLELSNENEQENGKKVKAPNYKQVSDPYGRLVYGVPPRGYADLAFAQHMLASLKADGRMGVILPHGVLFRSGEEGKIREGLLFGTGAASGNQPGDVIEAIVGLPSALFYNTGIPACVLILNKQKPSALKDKVIIIDGSRDYLEGKAQNSLHAEDILRIVSTH”, the protein production entry is reported as “failed”.

These data come from a protein production outcome set (Wang et al. 2014).
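Further: failed if final PepcDB status was selected cloned or expressed and not failed if soluble or beyond.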
